Target: N-mEGFP full length (nucleocapsid) (SARS-CoV-2, UniProt P0DTC9 1-419)
Assay: EMSA; 200 nM RNA; N-mEGFP titrated
Settings: protein: recombinant; tags: C-terminal mEGFP; pET28a(+), Ni-purified (His tag implied); chain copies: 2

B1: 55-nt vRNA (5' UTR segment) (ssRNA)
RNA: AUUAAAGGUUUAUACCUUCCCAGGUAACAAACCAACCAACUUUCGAUCUCUUGUA
  binding result: binds

From article PMC8035206
